In article PMC4657049:

Molecular target: biotinylated eLtaS protein (extracellular domain of LtaS of S. aureus) (S. aureus 8325-4) (UniProt Q2G093)
Test: SPR; biotinylated eLtaS immobilised on Sensor Chip SA; C3 and C3b injected at 300, 100, 30, 10 ug/ml; global kinetic fit

Chain of UniProt Q2G093 (Q2G093 whole entry, the tested form may be a part): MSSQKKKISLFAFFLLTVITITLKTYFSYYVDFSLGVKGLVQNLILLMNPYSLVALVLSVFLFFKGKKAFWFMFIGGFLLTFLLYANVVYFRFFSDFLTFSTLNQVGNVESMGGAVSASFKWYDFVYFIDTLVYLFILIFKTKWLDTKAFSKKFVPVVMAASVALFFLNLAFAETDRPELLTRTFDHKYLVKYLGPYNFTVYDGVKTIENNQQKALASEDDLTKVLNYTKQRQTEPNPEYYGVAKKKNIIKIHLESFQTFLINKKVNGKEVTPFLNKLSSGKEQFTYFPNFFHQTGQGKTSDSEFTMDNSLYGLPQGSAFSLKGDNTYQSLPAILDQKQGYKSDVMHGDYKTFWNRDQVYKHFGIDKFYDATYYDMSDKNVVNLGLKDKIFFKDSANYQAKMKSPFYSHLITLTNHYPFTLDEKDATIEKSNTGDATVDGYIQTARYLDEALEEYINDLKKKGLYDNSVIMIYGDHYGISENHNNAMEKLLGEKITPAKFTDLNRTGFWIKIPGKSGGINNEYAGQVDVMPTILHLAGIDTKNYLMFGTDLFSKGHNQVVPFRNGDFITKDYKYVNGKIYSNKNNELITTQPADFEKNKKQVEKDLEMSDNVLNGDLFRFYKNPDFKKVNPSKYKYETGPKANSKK

Row | Substance | Kd [pM] | koff [s⁻¹] | kon [M⁻¹ s⁻¹]
1 | human complement C3 (from UniProt P01024 23-667; P01024 672-1663) (natural protein) | 687 | 0.00149 | 2.17e+06
2 | human complement C3b (from UniProt P01024 23-667; P01024 749-1663) (domain or fragment) | 546 | 0.00198 | 3.63e+06
